Key:
CD22 (human) [1] = target: CD22 (human) (UniProt P20273); experiment: flow cytometry on bone marrow blasts at inclusion
CD22 (human) [2] = target: CD22 (human) (UniProt P20273); experiment: flow cytometry on peripheral blood blasts at inclusion
CD22 (human) [3] = target: CD22 (human) (UniProt P20273); experiment: flow cytometry, BM blasts at day 15 post-RAIT (FIG. 1A)
CD22 (human) [4] = target: CD22 (human) (UniProt P20273); experiment: flow cytometry, normal BM B cells at day 90 post-RAIT (FIG. 1B)
CD22 (human) [5] = target: CD22 (human) (UniProt P20273); experiment: flow cytometry on residual blasts of one non-responder after RAIT
CD22 (human) [6] = target: CD22 (human) (UniProt P20273); experiment: flow cytometry on residual blasts of four non-responders after RAIT
CD22 (human) [7] = target: CD22 (human) (UniProt P20273); experiment: flow cytometry on blasts after elimination of epratuzumab from the surface
CD22 (human) [8] = target: CD22 (human) (UniProt P20273); experiment: flow cytometry on residual blasts of three non-responders after RAIT (epratuzumab on the cells)
CD22 (human) [9] = target: CD22 (human) (UniProt P20273); experiment: flow cytometry on BM blasts of a patient who had received epratuzumab (epratuzumab on the cells)
CD22 (human) [10] = target: CD22 (human) (UniProt P20273); experiment: flow cytometry, normal BM B cells at day 180 post-RAIT (FIG. 1B), epratuzumab gone from the surface

median % of CD22-SHCL-1 expression (bone marrow blasts) (CD22 (human) [1]): 100%
median % of CD22-SHCL-1 expression (peripheral blasts) (CD22 (human) [2]): 100%
% CD22 SHCL-1 blast expression (CD22 (human) [3]): 100%
% CD22 SHCL-1 expression (normal BM B cells) (CD22 (human) [4]): 100%
% positivity of residual blasts (CD22 (human) [5]): 84%
% positivity of residual blasts (CD22 (human) [6]): 100%
% labeling of blasts (CD22 (human) [7]): 100%
% positivity of residual blasts (CD22 (human) [8]): 100%
% of SHCL-1+ blasts (CD22 (human) [9]): 100%
% positive (normal BM B cells) (CD22 (human) [10]): 100%
Substance: SHCL-1 (anti-CD22 antibody clone, PE or PerCp-Cy5.5 conjugated, BD Biosciences)

From patent publication US20160296648A1
